Substrate in series [1]: NC(=O)C(=O)O
As to the kind of experiment: oxamate consumption by HPLC, reverse reaction. Type of series: biochemical, Escherichia coli. Conditions: co-substrate carbamoyl phosphate, 10 mM MgCl2, 100 mM Tris pH 9.0, 30 °C, 100 nM enzyme. The source says: (§1) oxamate consumption by HPLC, reverse reaction on AllFGH (AllF-AllG-AllH; FdrA-YlbE-YlbF), oxamic transcarbamylase (OXTCase)

Substrate in series [2]: NC(=O)OP(=O)(O)O
As to the kind of experiment: oxamate consumption by HPLC, reverse reaction. The conditions noted are these: oxamate fixed at 40 mM, 10 mM MgCl2, 100 mM Tris pH 9.0, 30 °C, 100 nM enzyme. The class given is biochemical, Escherichia coli.
Text: as §1

B1: AllFGH (AllF-AllG-AllH; FdrA-YlbE-YlbF), oxamic transcarbamylase (OXTCase) (Escherichia coli K-12) (protein)
chain 1: MIHAFIKKGCFQDSVSLMIISRKLSESENVDDVSVMMGTPANKALLDTTGFWHDDFNNATPNDICVAIRSEAADAGIAQAIMQQLEEALKQLAQGSGSSQALTQVRRWDSACQKLPDANLALISVAGEYAAELANQALDRNLNVMMFSDNVTLEDEIQLKTRAREKGLLVMGPDCGTSMIAGTPLAFANVMPEGNIGVIGASGTGIQELCSQIALAGEGITHAIGLGGRDLSREVGGISALTALEMLSADEKSEVLAFVSKPPAEAVRLKIVNAMKATGKPTVALFLGYTPAVARDENVWFASSLDEAARLACLLSRVTARRNAIAPVSSGFICGLYTGGTLAAEAAGLLAGHLGVEADDTHQHGMMLDADSHQIIDLGDDFYTVGRPHPMIDPTLRNQLIADLGAKPQVRVLLLDVVIGFGATADPAASLVSAWQKACAARLDNQPLYAIATVTGTERDPQCRSQQIATLEDAGIAVVSSLPEATLLAAALIHPLSPAAQQHTPSLLENVAVINIGLRSFALELQSASKPVVHYQWSPVAGGNKKLARLLERLQ
chain 2: MFTSVAQANAAVIEQIRRARPHWLDVQPASSLISELNEGKTLLHAGPPMRWQEMTGPMKGACVGACLFEGWAKDEAQALAILEQGEVNFIPCHHVNAVGPMGGITSASMPMLVVENVTDGNRAYCNLNEGIGKVMRFGAYGEDVLTRHRWMRDVLMPVLSAALGRMERGIDLTAMMAQGITMGDEFHQRNIASSALLMRALAPQIARLDHDKQHIAEVMDFLSVTDQFFLNLAMAYCKAAMDAGAMIRAGSIVTAMTRNGNMFGIRVSGLGERWFTAPVNTPQGLFFTGFSQEQANPDMGDSAITETFGIGGAAMIAAPGVTRFVGAGGMEAARAVSEEMAEIYLERNMQLQIPSWDFQGACLGLDIRRVVETGITPLINTGIAHKEAGIGQIGAGTVRAPLACFEQALEALAESMGIG
chain 3: MTIIHPLLASSSAPNYRQSWRLAGVWRRAINLMTESGELLTLHRQGSGFGPGGWVLRRAQFDALCGGLCGNERPQVVAQGIRLGRFTVKQPQRYCLLRITPPAHPQPLAAAWMQRAEETGLFGPLALAASDPLPAELRQFRHCFQAALNGVKTDWRHWLGKGPGLTPSHDDTLSGMLLAAWYYGALDARSGRPFFACSDNLQLVTTAVSVSYLRYAAQGYFASPLLHFVHALSCPKRTAVAIDSLLALGHTSGADTLLGFWLGQQLLQGKP
notes: full-length subunits co-expressed from pET30b (pMB191) in E. coli BL21(DE3); 6xHis at N-terminus of AllF and C-terminus of AllH, tags kept; 62, 46, 31 kDa; 555, 419, 271 aa
On to B1, for which, in series [1], the Michaelis-Menten constant (Km) (commonly the substrate concentration at which the rate is half of its maximum) is 36.9 mM; the kcat (commonly the number of substrate molecules converted per active site and unit of time at saturation) turned out to be 58.5 s⁻¹; the kcat/Km (usually the second-order rate constant that governs catalysis at low substrate concentration) was 1600 M⁻¹ s⁻¹. For the same protein, in series [2], the Km was determined as 1.3 mM, the kcat amounted to 35.5 s⁻¹ and the kcat/Km stood at 27300 M⁻¹ s⁻¹.

The values are drawn from article PMC11326118, “Oxamic transcarbamylase of Escherichia coli is encoded by the three genes allFGH (formerly fdrA, ylbE, and ylbF)” (Applied and Environmental Microbiology, 2024).
